Legend:
[1] = target: Gβγ (Ste4p/Ste18p) in yeast cells (S. cerevisiae) (UniProt P18852); experiment: cell-based or functional assay
[2] = target: T1, 3×myc-Cdc24-m1 mutant (S. cerevisiae, UniProt P11433 1-854); experiment: co-precipitation with Far1-protein A on IgG-Sepharose from yeast extracts
T1 sequence (looked up): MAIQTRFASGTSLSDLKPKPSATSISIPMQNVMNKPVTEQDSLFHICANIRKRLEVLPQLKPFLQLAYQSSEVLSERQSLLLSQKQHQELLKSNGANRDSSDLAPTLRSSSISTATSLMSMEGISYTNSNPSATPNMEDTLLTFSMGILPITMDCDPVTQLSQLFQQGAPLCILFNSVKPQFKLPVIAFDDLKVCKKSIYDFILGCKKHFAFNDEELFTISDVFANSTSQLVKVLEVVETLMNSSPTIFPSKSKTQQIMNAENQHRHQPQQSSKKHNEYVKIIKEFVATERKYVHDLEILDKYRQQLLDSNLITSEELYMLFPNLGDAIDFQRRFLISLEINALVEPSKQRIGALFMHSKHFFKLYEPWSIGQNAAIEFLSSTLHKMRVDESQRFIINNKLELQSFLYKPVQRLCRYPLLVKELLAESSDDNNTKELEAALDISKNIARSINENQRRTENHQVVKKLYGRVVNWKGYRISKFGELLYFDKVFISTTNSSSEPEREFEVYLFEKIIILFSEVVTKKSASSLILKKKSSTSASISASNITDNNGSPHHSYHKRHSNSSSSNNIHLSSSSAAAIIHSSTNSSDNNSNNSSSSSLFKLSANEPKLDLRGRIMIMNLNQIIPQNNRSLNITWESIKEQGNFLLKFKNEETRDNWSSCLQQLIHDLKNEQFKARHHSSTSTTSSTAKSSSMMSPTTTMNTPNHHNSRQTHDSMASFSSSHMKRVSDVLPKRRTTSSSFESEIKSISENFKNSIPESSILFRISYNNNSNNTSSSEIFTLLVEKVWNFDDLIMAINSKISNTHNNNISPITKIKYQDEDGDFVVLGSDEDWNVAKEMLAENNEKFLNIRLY
Description: Although cdc24-m and far1-s mutants result in similar defects in growth orientation during mating, we set out to determine if these genes function in the same orientation process. […] Cdc24 and Far1 were epitope tagged in order to determine whether these proteins interact in yeast cells. The chronosomal copy of Cdc24 was replaced with a 3×myc tagged Cdc24 and the chromosomal copy of Far1 was replaced with Far1 protein A fusion. Both of these fusion proteins are fully functional. Isolation of Far1-protein A from yeast extracts using IgG-Sepharose co-precipitated 3×myc-Cdc24. In contrast, the 3×myc-Cdc24-m1 mutant was defective in binding Far1 in similar imnmunoprecipitation assays.

[3] = target: T2, MBP-Far1 H7 (S. cerevisiae, UniProt P21268 1-755); experiment: in vitro binding of purified MBP-Far1 and GST-Cdc24 fusions
T2 sequence (looked up): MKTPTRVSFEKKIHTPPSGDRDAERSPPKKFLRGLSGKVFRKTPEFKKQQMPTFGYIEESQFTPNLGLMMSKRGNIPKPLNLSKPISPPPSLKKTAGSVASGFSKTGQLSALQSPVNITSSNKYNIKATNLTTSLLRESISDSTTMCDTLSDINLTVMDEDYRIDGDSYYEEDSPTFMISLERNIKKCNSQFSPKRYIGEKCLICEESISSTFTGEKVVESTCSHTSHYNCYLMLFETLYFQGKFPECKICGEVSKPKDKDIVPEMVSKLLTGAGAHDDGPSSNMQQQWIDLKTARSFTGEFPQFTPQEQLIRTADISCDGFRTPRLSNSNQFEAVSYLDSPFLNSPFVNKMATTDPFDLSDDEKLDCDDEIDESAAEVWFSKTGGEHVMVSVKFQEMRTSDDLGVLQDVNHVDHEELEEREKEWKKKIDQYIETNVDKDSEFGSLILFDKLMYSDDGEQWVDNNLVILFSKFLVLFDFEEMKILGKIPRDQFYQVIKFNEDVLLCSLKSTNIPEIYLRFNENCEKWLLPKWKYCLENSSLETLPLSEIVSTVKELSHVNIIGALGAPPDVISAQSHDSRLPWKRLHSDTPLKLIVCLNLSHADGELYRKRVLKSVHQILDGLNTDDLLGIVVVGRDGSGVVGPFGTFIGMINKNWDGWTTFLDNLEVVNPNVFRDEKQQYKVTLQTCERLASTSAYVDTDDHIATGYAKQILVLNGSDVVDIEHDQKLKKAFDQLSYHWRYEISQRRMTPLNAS

[4] = target: T3, MBP-Far1 (S. cerevisiae, UniProt P21268 1-830, limits assumed); experiment: in vitro binding of fusion proteins purified from E. coli
T3 construct: Expressed and purified from E. coli
T3 sequence (looked up): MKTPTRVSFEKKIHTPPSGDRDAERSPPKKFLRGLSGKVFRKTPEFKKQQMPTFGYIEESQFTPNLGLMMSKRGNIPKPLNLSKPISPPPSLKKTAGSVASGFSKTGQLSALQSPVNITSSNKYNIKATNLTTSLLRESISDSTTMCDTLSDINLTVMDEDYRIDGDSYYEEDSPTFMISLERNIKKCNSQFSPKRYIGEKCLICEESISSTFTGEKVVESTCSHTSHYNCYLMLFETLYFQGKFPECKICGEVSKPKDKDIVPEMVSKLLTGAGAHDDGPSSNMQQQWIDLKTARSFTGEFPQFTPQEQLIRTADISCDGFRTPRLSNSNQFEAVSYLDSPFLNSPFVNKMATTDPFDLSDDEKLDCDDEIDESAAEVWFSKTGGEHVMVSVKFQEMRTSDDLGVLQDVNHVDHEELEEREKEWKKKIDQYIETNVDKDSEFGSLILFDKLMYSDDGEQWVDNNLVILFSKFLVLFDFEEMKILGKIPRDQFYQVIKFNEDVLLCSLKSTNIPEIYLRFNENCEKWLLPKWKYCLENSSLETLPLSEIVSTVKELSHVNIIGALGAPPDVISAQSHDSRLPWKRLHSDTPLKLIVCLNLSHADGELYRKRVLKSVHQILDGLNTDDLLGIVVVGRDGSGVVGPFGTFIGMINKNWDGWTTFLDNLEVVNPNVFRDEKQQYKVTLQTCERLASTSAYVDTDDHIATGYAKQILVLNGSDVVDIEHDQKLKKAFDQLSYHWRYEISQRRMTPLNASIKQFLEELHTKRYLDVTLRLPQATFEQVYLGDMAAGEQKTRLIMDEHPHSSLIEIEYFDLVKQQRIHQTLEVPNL

[5] = target: T4, Cdc24p, two-hybrid construct (limits not stated) (S. cerevisiae, UniProt P11433 1-288); experiment: yeast two-hybrid screen
T4 construct: not shown: GAL4 two-hybrid fusion partner
T4 sequence (looked up): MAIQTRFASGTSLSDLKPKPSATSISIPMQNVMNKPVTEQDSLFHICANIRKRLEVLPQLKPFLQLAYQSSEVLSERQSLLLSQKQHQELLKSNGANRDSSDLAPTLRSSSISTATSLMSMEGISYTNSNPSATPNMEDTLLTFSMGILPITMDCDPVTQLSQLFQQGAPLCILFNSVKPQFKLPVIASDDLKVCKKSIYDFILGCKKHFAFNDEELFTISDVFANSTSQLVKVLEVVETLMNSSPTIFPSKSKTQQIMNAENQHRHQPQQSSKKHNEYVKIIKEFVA

Sequence of Gβγ (Ste4p/Ste18p) in yeast cells (S. cerevisiae) (P18852 1-107): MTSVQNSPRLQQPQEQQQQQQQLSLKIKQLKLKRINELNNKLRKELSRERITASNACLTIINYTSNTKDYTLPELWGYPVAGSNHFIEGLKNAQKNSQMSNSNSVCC

Question: With “Cdc24p in CDC24 (wild type) yeast cells (from UniProt P11433 1-854)” as the molecule, how does the average cosine of the angle of cell projection relative to the micropipet (orientation in a pheromone gradient) [1] read?
Answer: Its average cosine of the angle of cell projection relative to the micropipet (orientation in a pheromone gradient) is 0.52.

B1: Far1 protein A fusion (other, S. cerevisiae, UniProt P21268 1-830, looked up)
chain: MKTPTRVSFEKKIHTPPSGDRDAERSPPKKFLRGLSGKVFRKTPEFKKQQMPTFGYIEESQFTPNLGLMMSKRGNIPKPLNLSKPISPPPSLKKTAGSVASGFSKTGQLSALQSPVNITSSNKYNIKATNLTTSLLRESISDSTTMCDTLSDINLTVMDEDYRIDGDSYYEEDSPTFMISLERNIKKCNSQFSPKRYIGEKCLICEESISSTFTGEKVVESTCSHTSHYNCYLMLFETLYFQGKFPECKICGEVSKPKDKDIVPEMVSKLLTGAGAHDDGPSSNMQQQWIDLKTARSFTGEFPQFTPQEQLIRTADISCDGFRTPRLSNSNQFEAVSYLDSPFLNSPFVNKMATTDPFDLSDDEKLDCDDEIDESAAEVWFSKTGGEHVMVSVKFQEMRTSDDLGVLQDVNHVDHEELEEREKEWKKKIDQYIETNVDKDSEFGSLILFDKLMYSDDGEQWVDNNLVILFSKFLVLFDFEEMKILGKIPRDQFYQVIKFNEDVLLCSLKSTNIPEIYLRFNENCEKWLLPKWKYCLENSSLETLPLSEIVSTVKELSHVNIIGALGAPPDVISAQSHDSRLPWKRLHSDTPLKLIVCLNLSHADGELYRKRVLKSVHQILDGLNTDDLLGIVVVGRDGSGVVGPFGTFIGMINKNWDGWTTFLDNLEVVNPNVFRDEKQQYKVTLQTCERLASTSAYVDTDDHIATGYAKQILVLNGSDVVDIEHDQKLKKAFDQLSYHWRYEISQRRMTPLNASIKQFLEELHTKRYLDVTLRLPQATFEQVYLGDMAAGEQKTRLIMDEHPHSSLIEIEYFDLVKQQRIHQTLEVPNL
notes: Isolated from yeast extracts on IgG-Sepharose; not shown: protein A moiety
Question: Does B1 bind [2]?
Answer: Result: no binding

B2: GSTCdc24p (1-472 aa) (other, S. cerevisiae, UniProt P11433 1-472, looked up)
chain: MAIQTRFASGTSLSDLKPKPSATSISIPMQNVMNKPVTEQDSLFHICANIRKRLEVLPQLKPFLQLAYQSSEVLSERQSLLLSQKQHQELLKSNGANRDSSDLAPTLRSSSISTATSLMSMEGISYTNSNPSATPNMEDTLLTFSMGILPITMDCDPVTQLSQLFQQGAPLCILFNSVKPQFKLPVIASDDLKVCKKSIYDFILGCKKHFAFNDEELFTISDVFANSTSQLVKVLEVVETLMNSSPTIFPSKSKTQQIMNAENQHRHQPQQSSKKHNEYVKIIKEFVATERKYVHDLEILDKYRQQLLDSNLITSEELYMLFPNLGDAIDFQRRFLISLEINALVEPSKQRIGALFMHSKHFFKLYEPWSIGQNAAIEFLSSTLHKMRVDESQRFIINNKLELQSFLYKPVQRLCRYPLLVKELLAESSDDNNTKELEAALDISKNIARSINENQRRTENHQVVKKLYGRVV
notes: range 1-472; Expressed in E. coli; also called GSTCdc24 fusion; GST Cdc24 fusion (residues 1-472); not shown: glutathione-S-transferase as encoded by pGEX-2T (Pharmacia)
Question: Does B2 bind [3]?
Answer: Result: no binding

Question: Does B2 bind [4]?
Answer: Result: binds

B3: Ste4p mutant (SEQ. I.D. No: 13) (other)
chain: MAHQMDSITYSNNVTQQYIQPQSLQDISAVEEEIQNKIEAARQESKQLHAQINKAKHKIQDASLFQMANKVTSLTKNKINLKPNIVLKGHNNKISDFRWSRDSKRILSASQDGFMLIWDSASGLKQNAIPLDSQWVLSCAISPSSTLVASAGLNNNCTIYRVSKENRVAQNVASIFKGHTCYISDIEFTDNAHILTASGDMTCALWDIPKAKRVRGYSDHLGDVLALAIPEEPNLENSSNTFASCGSDGYTYIWDSRSPSAVQSFYVNDSDINALRFFKDGMSIVAGSDNGAINMYDLRSDCSIATFSLFRGYEERTPTPTYMAANMEYNTAQSPQTLKSTSSSYLDNQGVVSLDFSASGRLMYSCYTDIGCVVWDVLKGEIVGKLEGHGGRVTGVRSSPDGLAVCTGSWDSTMKIWSPGYQ
notes: Isolated in a two-hybrid screen; also called mutant G protein β subunit; I.D. No: 12 (nucleotide); not shown: GAL4 two-hybrid fusion partner
Question: Does B3 bind [5]?
Answer: Result: no binding

B4: Ste4p mutant (SEQ. I.D. No: 15) (other)
chain: MAHQMDSITYSNNVTQQYIQPQSLQDISAVEEEIQNKIEAARQESKQLHAQINKAKHKIQDASLFQMANKVTSLTKNKINLKPNIVLKGHNNKISDFRWSRDSKRILSASQDGFMLIWDSASGLKQNAIPLDSQWVLSCAISPSSTLVASAGLNNNCTIYRVSKENRVAQNVASIFKGHTCYISDIEFTDNAHILTASGDMTCALWDIPKAKRVREYSDHLGDVLALAIPEEPNLENSSNTFASCGSDGYTYIWDSRSPSAVQSFYVNDSDINALRFFKDGMSIVAGSDNGAINMYDLRSDCSIATFSLFRGYEERTPTPTYMAANMEYNTAQSPQTLKSTSSSYLDNQGAVSLDFSASGRLMYSCYTDIGCVVWDVLKGEIVGKLEGHGGRVTGVRSSPDGLAVCTGSWDSTMKIWSPGYQ
notes: Isolated in a two-hybrid screen; also called mutant G protein β subunit; I.D. No: 14 (nucleotide); not shown: GAL4 two-hybrid fusion partner
Question: Does B4 bind [5]?
Answer: Result: no binding

— patent US20030175712A1 (published 2003)
